For experiment [1], the target named is cynomolgus FcRn (cynomolgus monkey) (UniProt Q8SPV9). Nature of the experiment: BIACORE-based assay, antibody bound to FcRn at pH 6.0, residual bound antibody after adjustment to pH 7.4. For orientation: Surface plasmon resonance follows binding to a sensor surface in real time, without labels.
The target of experiment [2] is human FcRn (human) (UniProt P55899). Described as above.

Results on one substance are retold here after patent publication US20180051082A1.

Sequence of cynomolgus FcRn (cynomolgus monkey) (Q8SPV9 24-297): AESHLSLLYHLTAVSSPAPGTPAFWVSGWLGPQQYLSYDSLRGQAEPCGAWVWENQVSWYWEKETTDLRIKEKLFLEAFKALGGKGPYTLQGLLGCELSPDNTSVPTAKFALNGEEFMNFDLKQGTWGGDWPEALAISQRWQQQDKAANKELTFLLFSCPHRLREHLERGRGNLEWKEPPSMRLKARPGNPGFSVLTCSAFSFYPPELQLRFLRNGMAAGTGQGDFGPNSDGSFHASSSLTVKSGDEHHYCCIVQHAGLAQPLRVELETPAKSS
Sequence of human FcRn (human) (P55899 24-297 limits assumed, chain 1 of 2): as the sequence (Q8SPV9 24-297) above, with D39N, Q44E, S99G, G189S, N190S, M217L, T269S counted along it
Sequence of human FcRn (human) (P61769 21-119 limits assumed, chain 2 of 2, further chain): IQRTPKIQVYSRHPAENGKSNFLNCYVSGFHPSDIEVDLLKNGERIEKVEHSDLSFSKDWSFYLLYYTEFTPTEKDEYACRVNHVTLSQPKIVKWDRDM

Take “human IgG1 version of BMS-936558, designated BMS (antibody)”: the % Residual Binding at pH 7.4 in experiment [1] came to 1.7%; in experiment [2] it was 2%.
